T1: human TNFR2 on the cell membrane (human, UniProt P20333 23-461)
T1 construct: whole, on cells; One molecule for all cell formats; also called TNFR2-CHO cells; CHO-TNFR2
T1 sequence (looked up): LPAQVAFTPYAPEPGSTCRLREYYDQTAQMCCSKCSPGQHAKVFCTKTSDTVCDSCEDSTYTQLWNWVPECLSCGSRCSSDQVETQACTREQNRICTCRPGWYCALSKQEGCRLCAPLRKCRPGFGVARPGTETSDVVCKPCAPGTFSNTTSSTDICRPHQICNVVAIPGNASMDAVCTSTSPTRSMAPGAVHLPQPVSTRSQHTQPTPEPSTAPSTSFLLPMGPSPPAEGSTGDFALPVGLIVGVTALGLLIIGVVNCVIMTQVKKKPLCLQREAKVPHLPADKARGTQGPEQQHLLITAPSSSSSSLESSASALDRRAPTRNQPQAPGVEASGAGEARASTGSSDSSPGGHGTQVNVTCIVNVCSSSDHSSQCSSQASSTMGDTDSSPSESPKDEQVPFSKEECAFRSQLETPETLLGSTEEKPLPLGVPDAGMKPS

T2: TNFR2-His (Sino Biological, 10417-H08H, NP_001057.1 Met1-Asp257, with multi-histidine tag expressed on … (human, UniProt P20333 23-257))
T2 construct: range 1-257; Bought protein; also called recombinant human TNFR2 protein; TNFR2-His antigen; not shown: C-terminal multi-histidine tag
T2 sequence (looked up): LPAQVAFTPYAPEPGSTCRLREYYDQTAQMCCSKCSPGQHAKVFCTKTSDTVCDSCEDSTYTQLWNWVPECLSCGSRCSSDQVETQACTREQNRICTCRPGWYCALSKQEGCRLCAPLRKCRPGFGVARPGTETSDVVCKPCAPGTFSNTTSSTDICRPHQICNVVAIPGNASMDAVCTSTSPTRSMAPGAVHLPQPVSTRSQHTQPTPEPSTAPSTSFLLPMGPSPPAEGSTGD


What was measured:
[1] = target: T1, human TNFR2 on the cell membrane; assay: flow cytometry on CHO-TNFR2 cells
How it was run: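 Binding was measured by flow cytometry (Beckman CytoFLEX) on a CHO line stably overexpressing human TNFR2. Cells in 96-deep-well plates were exposed to serially diluted antibodies, washed and labelled with a fluorescent anti-IgG secondary antibody, and EC50 was determined across the dilutions.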

[2] = target: T2, TNFR2-His (Sino Biological, 10417-H08H, …); assay: competition ELISA, coated TNFR2-His, biotin-labeled TNFα fusion protein at fixed concentration
Procedure: The ELISA plate was coated with TNFR2-His antigen (Sino Biological, 10417-H08H, Assessment #NP_001057.1. Met1-Asp257, with multi-histidine tags expressed on C-terminus) and blocked, added with the gradient diluted TNFR2 monoclonal antibodies and biotin-labeled TNFα fusion protein of fixed concentration for incubation, then added with the secondary antibody Ap-Strepavidin (Herobio, 510401) for incubation. After development, the detection was performed using microplate reader.

Row | EC50 [1] | IC50 [2] | Binder
1 | 0.0291 µg/mL |  | human-mouse chimeric TNFR2 monoclonal antibody 12E12-hFc (antibody, V domains shown, Mouse V regions of clone 12E12 with human constant regions; also called human-mouse chimeric 12E12 antibody) VH: EVQLQQSGAELVKPGASVKLSCTVSGFNIKDFYIHWVKQRPEQGLEWIGRVDPEDGNTEYAPNFQDRATMTTDTSSNTAYLQLSSLTSVDTAVYYCSTWDGFSYFDYWGLGTTLTVSS VL: QAVVTQESALTTSPGETVTLTCRSSTGPVTTNNYANWVQEKPDHLFTGLIGGTNDRAPGVPARFSGSLIGDKTALTITGTQTEDEAVYFCALWYRNHWVFGGGTKLTVL
2 |  | 0.644 µg/mL | human-mouse chimeric TNFR2 monoclonal antibody 27F6-hFc (antibody, V domains shown, Mouse V regions of clone 27F6 with human constant regions) VH: EVQLQQSGTVLARPGASVKMSCKTSGYTFTSYWMHWVKQRPGQGLEWIGTIYPGNSDTSYNQKFKGKAKLTAVTSASTAYMELNSLTNEDSAVFYCTRENLLLRSYFFDYWGQGTTLTVSS VL: DIVMTQSPASLAVSLGQRATISCKASQSVDYDGDSYLNWYQQKPGQPPKLLIYAASNLPSGIPARFSGSGSGTDFTLNIHPVEEEDAATYYCQQSNEDPRTFGGGTKLEIK

Reference: patent publication US20240392024A1 (SHANGHAI CELGEN BIO PHARMACEUTICAL, published 2024)
